{"source": "paper PMC10119312", "about": "“Structural insights into RNase J that plays an essential role in Mycobacterium tuberculosis RNA metabolism” (Nature Communications, 2023)", "proteins": {"B1": {"name": "Mycobacterium tuberculosis RNase J, full-length wild type (enzyme)", "chain": "MDVDLPPPGPLTSGGLRVTALGGINEIGRNMTVFEHLGRLLIIDCGVLFPGHDEPGVDLILPDMRHVEDRLDDIEALVLTHGHEDHIGAIPFLLKLRPDIPVVGSKFTLALVAEKCREYRITPVFVEVREGQSTRHGVFECEYFAVNHSTPDALAIAVYTGAGTILHTGDIKFDQLPPDGRPTDLPGMSRLGDTGVDLLLCDSTNAEIPGVGPSESEVGPTLHRLIRGADGRVIVACFASNVDRVQQIIDAAVALGRRVSFVGRSMVRNMRVARQLGFLRVADSDLIDIAAAETMAPDQVVLITTGTQGEPMSALSRMSRGEHRSITLTAGDLIVLSSSLIPGNEEAVFGVIDALSKIGARVVTNAQARVHVSGHAYAGELLFLYNGVRPRNVMPVHGTWRMLRANAKLAASTGVPQESILLAENGVSVDLVAGKASISGAVPVGKMFVDGLIAGDVGDITLGERLILSSGFVAVTVVVRRGTGQPLAAPHLHSRGFSEDPKALEPAVRKVEAELESLVAANVTDPIRIAQGVRRTVGKWVGETYRRQPMIVPTVIEV", "notes": "also called Mtb-RNase J; WT; not shown: 6xHis-sumo, N-terminal, cleaved"}}, "molecular_target": "the molecule itself", "experiment": "SEC", "data": [{"protein": "B1", "values": [{"measurement": "stoichiometry N", "result": 2}]}]}
